Laboratory results from patent publication US20230192861A1.

What was measured:
[1] = molecular target: human B7-H3 expressed on the surface of human cancer cell lines (human) (UniProt Q5ZPR3); assay: FACS on HCT116 cells, 10 ug/ml
[2] = molecular target: human B7-H3 expressed on the surface of human cancer cell lines (human) (UniProt Q5ZPR3); assay: FACS on MDA-MB-231 cells, 10 ug/ml
[3] = molecular target: human B7-H3 expressed on the surface of human cancer cell lines (human) (UniProt Q5ZPR3); assay: FACS on MCF-7 cells, 10 ug/ml
[4] = molecular target: human B7-H3 expressed on the surface of human cancer cell lines (human) (UniProt Q5ZPR3); assay: FACS on Panc-1 cells, 10 ug/ml
[5] = molecular target: human B7-H3 expressed on the surface of human cancer cell lines (human) (UniProt Q5ZPR3); assay: FACS on DLD-1 cells, 10 ug/ml
[6] = molecular target: human B7-H3 expressed on the surface of human cancer cell lines (human) (UniProt Q5ZPR3); assay: FACS on Hela cells, 10 ug/ml
[7] = molecular target: human B7-H3 expressed on the surface of human cancer cell lines (human) (UniProt Q5ZPR3); assay: FACS on Calu-6 cells, 10 ug/ml
[8] = molecular target: human B7-H3 expressed on the surface of human cancer cell lines (human) (UniProt Q5ZPR3); assay: FACS on HCC1954 cells, 10 ug/ml
[9] = molecular target: human B7-H3 expressed on the surface of human cancer cell lines (human) (UniProt Q5ZPR3); assay: FACS on JeKo-1 cells, 10 ug/ml
[10] = molecular target: human B7-H3 expressed on the surface of human cancer cell lines (human) (UniProt Q5ZPR3); assay: FACS on A2780 cells, 10 ug/ml
[11] = molecular target: human B7-H3 expressed on the surface of human cancer cell lines (human) (UniProt Q5ZPR3); assay: FACS on MDA-MB-468 cells, 10 ug/ml
[12] = molecular target: human B7-H3 expressed on the surface of human cancer cell lines (human) (UniProt Q5ZPR3); assay: FACS on HCC1187 cells, 10 ug/ml
[13] = molecular target: human B7-H3 expressed on the surface of human cancer cell lines (human) (UniProt Q5ZPR3); assay: FACS on 786-0 cells, 10 ug/ml
[14] = molecular target: human B7-H3 expressed on the surface of human cancer cell lines (human) (UniProt Q5ZPR3); assay: FACS on A-498 cells, 10 ug/ml
[15] = molecular target: human B7-H3 expressed on the surface of human cancer cell lines (human) (UniProt Q5ZPR3); assay: FACS on OVCAR-3 cells, 10 ug/ml
[16] = molecular target: human B7-H3 expressed on the surface of human cancer cell lines (human) (UniProt Q5ZPR3); assay: FACS on HT29 cells, 10 ug/ml
[17] = molecular target: human B7-H3 expressed on the surface of human cancer cell lines (human) (UniProt Q5ZPR3); assay: FACS on NCI-N87 cells, 10 ug/ml
[18] = molecular target: human B7-H3 expressed on the surface of human cancer cell lines (human) (UniProt Q5ZPR3); assay: FACS on SKOV-3 cells, 10 ug/ml

human B7-H3 expressed on the surface of human cancer cell lines (human), sequence (Q5ZPR3 29-534): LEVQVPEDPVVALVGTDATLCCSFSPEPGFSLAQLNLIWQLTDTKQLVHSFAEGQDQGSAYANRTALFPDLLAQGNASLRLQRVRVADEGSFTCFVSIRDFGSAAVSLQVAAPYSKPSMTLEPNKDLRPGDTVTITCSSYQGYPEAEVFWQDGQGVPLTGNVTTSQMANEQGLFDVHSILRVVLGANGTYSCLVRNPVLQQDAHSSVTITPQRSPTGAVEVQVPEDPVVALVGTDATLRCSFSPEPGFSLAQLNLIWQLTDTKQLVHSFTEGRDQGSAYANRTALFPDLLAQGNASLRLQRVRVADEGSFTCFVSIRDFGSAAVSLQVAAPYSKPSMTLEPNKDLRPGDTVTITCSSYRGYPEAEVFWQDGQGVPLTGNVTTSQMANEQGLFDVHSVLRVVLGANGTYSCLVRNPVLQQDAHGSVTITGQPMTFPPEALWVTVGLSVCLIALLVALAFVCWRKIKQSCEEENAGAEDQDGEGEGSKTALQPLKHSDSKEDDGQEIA

B1: 84D (comparison anti-B7-H3 antibody, Enoblituzumab variable regions) (antibody, part only; not given: constant regions, V domains shown, not shown: another chain or arm of the molecule)
VH: EVQLVESGGGLVQPGGSLRLSCAASGFTFSSFGMHWVRQAPGKGLEWVAYISSDSSAIYYADTVKGRFTISRDNAKNSLYLQMNSLRDEDTAVYYCGRGRENIYYGSRLDYWGQGTTVTVSS
VL: DIQLTQSPSFLSASVGDRVTITCKASQNVDTNVAWYQQKPGKAPKALIYSASYRYSGVPSRFSGSGSGTDFTLTISSLQPEDFATYYCQQYNNYPFTFGQGTKLEIK
Binder B1 has an MFI Ratio [1] of 5.9, an MFI Ratio [2] of 5.4 and an MFI Ratio [3] of 78. The MFI Ratio [4] was 9, the MFI Ratio [5] was 10.7 and the MFI Ratio [6] was 23.5. For the same binder, the MFI Ratio [7] was 23.2, the MFI Ratio [8] was 14 and the MFI Ratio [9] was 2.9. It also gave an MFI Ratio [10] of 13.1, an MFI Ratio [11] of 8.6 and an MFI Ratio [12] of 14.9. It also gave an MFI Ratio [13] of 20, an MFI Ratio [14] of 24 and an MFI Ratio [15] of 13.7. It also gave an MFI Ratio [16] of 8.9, an MFI Ratio [17] of 12.8 and an MFI Ratio [18] of 11.9.
